The values that follow come from publication PMC5777972 (Protein & Cell, 2017).

In experiment [1] the target is T1, PD-L1 extracellular domain fragment (from F19 to R238) (Homo sapiens, UniProt Q9NZQ7).
T1 construct: PD-L1 extracellular domain fragment, F19 to R238; probably the start methionine of the E. coli construct (surmise); also called two-Ig-domain PD-L1
As to the kind of experiment: SPR; BIAcore T100, CM5 chip, about 1000 RU of PD-L1 immobilised, scFv flowed at 5 nM to 80 nM, 25 °C, HBS-EP (150 mM NaCl, 10 mM HEPES, pH 7.4, 0.005% Tween-20), 1:1 Langmuir model. To be noted: both partners purified. A general note: In SPR one partner is held on a chip, and binding of the other changes the refractive index at the surface.

Another experiment has as its target T2, two-Ig-domain PD-L1 (Homo sapiens, UniProt Q9NZQ7).
T2 construct: PD-L1, the two Ig domains (IgV and the second Ig domain)
Briefly: SPR; PD-L1 protein immobilised on the chip, scFvs of the anti-PD-L1 MAbs flowed through; BIAcore T100. To be noted: both partners purified.

In general, koff refers to a measure of how fast the partners let go of each other. Higher therefore signals a short-lived complex. For orientation: kon means the rate constant with which the complex forms. A high value points to fast association. The Kd is the free concentration of one partner at which half of the binding sites on the other are occupied at equilibrium, for simple one-to-one binding. A higher Kd goes with a looser complex.

T1 sequence (Q9NZQ7 19-238): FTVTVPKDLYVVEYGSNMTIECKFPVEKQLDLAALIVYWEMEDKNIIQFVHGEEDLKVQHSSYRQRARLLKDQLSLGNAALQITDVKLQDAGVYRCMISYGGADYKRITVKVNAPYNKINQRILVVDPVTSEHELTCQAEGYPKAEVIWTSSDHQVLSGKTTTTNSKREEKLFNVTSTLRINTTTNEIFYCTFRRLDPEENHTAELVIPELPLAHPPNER
T2 sequence (Q9NZQ7 19-238): as above

B1: avelumab-scFv (scFv, V domains shown)
VH: EVQLLESGGGLVQPGGSLRLSCAASGFTFSSYIMMWVRQAPGKGLEWVSSIYPSGGITFYADTVKGRFTISRDNSKNTLYLQMNSLRAEDTAVYYCARIKLGTVTTVDYWGQGTLVTVSS
VL: QSALTQPASVSGSPGQSITISCTGTSSDVGGYNYVSWYQQHPGKAPKLMIYDVSNRPSGVSNRFSGSKSGNTASLTISGLQAEDEADYYCSSYTSSSTRVFGTGTKVTVL
notes: VL of avelumab; avelumab-scFv 'obtained as durvalumab-scFv'; VH of avelumab; Order VL-linker-VH is stated for durvalumab-scFv only; also called avalumab-scFv
On to B1, for which, in experiment [1], the dissociation rate constant (koff) stood at 7.53e-05 s⁻¹ and the kon came out at 1.61e+06 M⁻¹ s⁻¹.

B2: scFv of avelumab (scFv, V domains shown)
VH: B1 VH
VL: B1 VL
notes: VH and VL of avelumab as in the cited complex with PD-L1, PDB 5GRJ; The parent antibody is IgG1; the scFv was used for SPR; Its preparation may be told in the supplementary information
In the experiment with two-Ig-domain PD-L1, B2 had a Kd of 0.0467 nM.
